Results as given in US20250144178A1, “PHARMACEUTICAL COMPOSITION FOR CANCER TREATMENT COMPRISING FUSION PROTEIN INCLUDING IL-12 AND ANTI-FAP ANTIBODY AND ANTICANCER AGENT” (KANAPH THERAPEUTICS INC., priority 2022, published 2025).
Blank lines part the entries; values can stand above or below the substance they belong to.

How the values were obtained:
[1] = molecular target: human FAP (fibroblast activation protein alpha) overexpressed in HEK293 cells (HEK293-hFAP) (human) (UniProt Q12884); assay: flow cytometry on HEK293-hFAP cells, anti-human IgG antibody alone
Sequence of human FAP (fibroblast activation protein alpha) overexpressed in HEK293 cells (HEK293-hFAP) (human) (Q12884 whole entry): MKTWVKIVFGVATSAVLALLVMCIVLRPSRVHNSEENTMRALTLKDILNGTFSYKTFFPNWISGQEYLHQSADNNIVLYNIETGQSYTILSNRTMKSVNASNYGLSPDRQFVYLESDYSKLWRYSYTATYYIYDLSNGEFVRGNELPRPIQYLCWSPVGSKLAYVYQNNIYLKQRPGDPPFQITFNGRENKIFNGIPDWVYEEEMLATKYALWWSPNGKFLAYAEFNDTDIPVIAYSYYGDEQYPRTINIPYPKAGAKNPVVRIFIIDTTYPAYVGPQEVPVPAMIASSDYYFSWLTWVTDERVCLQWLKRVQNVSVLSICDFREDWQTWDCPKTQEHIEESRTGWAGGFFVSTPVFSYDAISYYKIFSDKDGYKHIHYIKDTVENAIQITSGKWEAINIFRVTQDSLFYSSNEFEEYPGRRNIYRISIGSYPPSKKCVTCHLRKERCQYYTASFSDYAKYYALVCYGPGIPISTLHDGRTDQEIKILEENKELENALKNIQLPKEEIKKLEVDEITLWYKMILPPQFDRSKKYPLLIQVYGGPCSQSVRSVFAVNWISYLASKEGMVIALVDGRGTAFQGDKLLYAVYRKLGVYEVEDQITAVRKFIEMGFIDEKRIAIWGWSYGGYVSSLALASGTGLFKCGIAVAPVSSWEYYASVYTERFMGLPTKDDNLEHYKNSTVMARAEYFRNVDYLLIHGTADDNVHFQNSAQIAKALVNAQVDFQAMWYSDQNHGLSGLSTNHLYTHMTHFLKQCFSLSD

[2] = molecular target: IL-12 receptor of human T cells (human) (UniProt P42701); assay: cell-based or functional assay
Sequence of IL-12 receptor of human T cells (human) (Q99665 24-862, chain 2 of 2, other chains not shown): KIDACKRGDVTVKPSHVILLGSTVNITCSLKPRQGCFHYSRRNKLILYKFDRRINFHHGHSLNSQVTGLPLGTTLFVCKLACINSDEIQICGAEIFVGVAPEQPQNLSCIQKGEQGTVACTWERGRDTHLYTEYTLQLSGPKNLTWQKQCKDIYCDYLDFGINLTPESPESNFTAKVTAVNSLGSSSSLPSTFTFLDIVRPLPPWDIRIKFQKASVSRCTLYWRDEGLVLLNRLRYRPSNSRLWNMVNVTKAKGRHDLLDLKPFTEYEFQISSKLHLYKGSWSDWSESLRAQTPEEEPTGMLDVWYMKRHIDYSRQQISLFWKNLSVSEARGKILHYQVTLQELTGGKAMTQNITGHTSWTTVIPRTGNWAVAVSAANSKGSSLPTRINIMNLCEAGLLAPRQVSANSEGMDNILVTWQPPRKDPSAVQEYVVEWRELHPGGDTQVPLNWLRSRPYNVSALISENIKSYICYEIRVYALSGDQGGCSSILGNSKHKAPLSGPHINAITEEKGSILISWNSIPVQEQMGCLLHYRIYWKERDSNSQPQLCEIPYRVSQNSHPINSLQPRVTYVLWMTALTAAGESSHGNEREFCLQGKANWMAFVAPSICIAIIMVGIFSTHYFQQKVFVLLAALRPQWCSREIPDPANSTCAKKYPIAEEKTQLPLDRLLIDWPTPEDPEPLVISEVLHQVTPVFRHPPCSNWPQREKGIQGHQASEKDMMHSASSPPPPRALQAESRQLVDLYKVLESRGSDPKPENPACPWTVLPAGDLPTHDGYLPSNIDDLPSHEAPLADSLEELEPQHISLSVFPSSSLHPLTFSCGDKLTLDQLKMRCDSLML

[3] = molecular target: mouse FAP (fibroblast activation protein alpha) overexpressed in B16F10 cells (B16F10-mFAP) (mouse) (UniProt P97321); assay: flow cytometry on B16F10-mFAP cells, anti-mouse IgG2a antibody alone
Sequence of mouse FAP (fibroblast activation protein alpha) overexpressed in B16F10 cells (B16F10-mFAP) (mouse) (P97321 whole entry): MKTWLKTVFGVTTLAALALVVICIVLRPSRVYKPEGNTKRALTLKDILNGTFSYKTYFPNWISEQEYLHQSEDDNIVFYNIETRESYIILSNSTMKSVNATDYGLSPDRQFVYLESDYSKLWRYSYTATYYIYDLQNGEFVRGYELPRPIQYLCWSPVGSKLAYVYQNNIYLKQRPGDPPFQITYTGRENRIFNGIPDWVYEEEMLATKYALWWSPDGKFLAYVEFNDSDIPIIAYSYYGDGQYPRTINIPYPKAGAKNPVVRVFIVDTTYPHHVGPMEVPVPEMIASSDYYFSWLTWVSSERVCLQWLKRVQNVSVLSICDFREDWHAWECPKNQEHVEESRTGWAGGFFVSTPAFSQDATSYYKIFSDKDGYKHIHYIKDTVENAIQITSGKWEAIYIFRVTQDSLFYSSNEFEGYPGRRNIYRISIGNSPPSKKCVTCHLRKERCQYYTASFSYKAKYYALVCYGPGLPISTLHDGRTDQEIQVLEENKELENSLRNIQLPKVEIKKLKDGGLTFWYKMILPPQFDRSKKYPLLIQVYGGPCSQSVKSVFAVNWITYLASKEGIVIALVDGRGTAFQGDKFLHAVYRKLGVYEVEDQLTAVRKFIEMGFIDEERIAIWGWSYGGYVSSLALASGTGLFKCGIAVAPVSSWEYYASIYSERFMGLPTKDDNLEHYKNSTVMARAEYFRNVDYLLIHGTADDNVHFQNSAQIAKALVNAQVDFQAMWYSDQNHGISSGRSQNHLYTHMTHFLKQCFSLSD

B16F10 = assay: flow cytometry on parental B16F10 cells, anti-mouse IgG2a antibody alone

percent of cells in the positive gate (hFAP-PE) [1]: 0.16%
Substance: 2nd only (antibody)

half maximal effective concentration (EC50) of p-STAT4 (Tyr693), AlphaLISA, activated human T cells [2]: 8.95 pM
Substance: recombinant human IL-12 (from UniProt P29459 23-219; P29460 23-328) (ligand)

percent of cells in the positive gate (mFAP-PE) [3]: 3.44% | percent of cells in the positive gate (mFAP-PE) (B16F10): 1.04%
Substance: 2nd Ab only (antibody)
